# Experimental data: US20220096653A1, “CONJUGATE COMPRISING LIGAND AND CEACAM5 ANTIBODY FAB FRAGMENT” (ASTELLAS PHARMA INC., priority 2019, published 2022)
# Several values for one entry are separate records, joined by “and”; a condition that tells them apart may be missing. Equal values may be shown once.
# Experiments:
# [1] = mouse, in vivo; cited from earlier work
# [2] = tested on: liver metastasis; conditions: compared with the normal liver; cited from earlier work
# [3] = molecular target: T1, CEACAM5 (R&D Systems, 4128-CM-050) (human, UniProt P06731 35-685); assay: ELISA on immobilised CEACAM5, 4-parameter fit; geometric mean of 9 runs
# T1 construct: Immobilised on the ELISA plate; also called human CEACAM5
# T1 sequence (looked up): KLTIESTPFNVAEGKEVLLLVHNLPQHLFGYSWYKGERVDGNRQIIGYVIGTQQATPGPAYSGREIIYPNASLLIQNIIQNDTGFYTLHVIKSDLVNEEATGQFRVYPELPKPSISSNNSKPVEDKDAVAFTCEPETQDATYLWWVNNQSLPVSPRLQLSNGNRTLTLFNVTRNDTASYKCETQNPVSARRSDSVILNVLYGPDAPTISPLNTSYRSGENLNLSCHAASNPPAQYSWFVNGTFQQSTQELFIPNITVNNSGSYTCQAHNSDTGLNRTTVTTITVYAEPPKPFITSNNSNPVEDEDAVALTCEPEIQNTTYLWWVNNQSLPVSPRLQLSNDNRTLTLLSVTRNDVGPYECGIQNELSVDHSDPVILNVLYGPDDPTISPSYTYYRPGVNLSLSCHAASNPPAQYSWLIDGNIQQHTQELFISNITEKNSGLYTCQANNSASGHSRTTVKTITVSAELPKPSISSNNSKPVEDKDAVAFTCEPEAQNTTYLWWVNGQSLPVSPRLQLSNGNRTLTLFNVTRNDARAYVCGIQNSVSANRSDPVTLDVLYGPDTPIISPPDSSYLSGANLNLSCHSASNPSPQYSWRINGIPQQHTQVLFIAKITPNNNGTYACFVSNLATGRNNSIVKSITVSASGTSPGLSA
# Experimental: (§1) Each anti-human CEACAM5 antibody Fab fragment conjugate prepared in Example 2 was subjected to ELISA to evaluate the binding activity thereof to CEACAM5. In the present test, a phosphate buffer (Nacalai Tesque Inc., 0.1 mol/L-Phosphate Buffer Solution (pH 7.2)) prepared to 10 mM by diluting 10-fold with distilled water was used as a solvent for an antigen immobilization liquid, and 20×PBS/Tween 20 Buffer (Thermo Fisher Scientific Inc., 28352) diluted 20-fold with distilled water was used as a wash liquid. In addition, for bovine serum albumin (BSA) used in the present test, 30% Bovine Serum Albumin solution (Sigma-Aldrich, Inc., A9576-50ML) was added in an appropriate proportion for use. CEACAM5 (R&D Systems, 4128-CM-050) was diluted with a 10 mM phosphate buffer (pH 7.2) to 0.1 μg/mL, and added to a Nunc MaxiSorp White 384 plate (Nunc, 4603272) at 30 μL per well, and the plate was incubated overnight at 4° C. for immobilization. The CEACAM5 immobilization liquid was removed by reverse centrifugation, and then blocking was carried out by adding a PBS/Tween 20 buffer containing 5.0% BSA. […] The substrate was incubated at room temperature for 15 minutes, and then a signal value thereof was measured using an Envision counter (PerkinElmer, Inc.).
# The test for each antibody was carried out in duplicate, and an EC₅₀ value was calculated using a 4-parameter logistic curve model.
# [4] = molecular target: T1, CEACAM5 (R&D Systems, 4128-CM-050); assay: ELISA on immobilised CEACAM5, 4-parameter fit; one of 2 runs (Example 3-2)
# Experimental: as §1
# (§2) The test for each antibody was carried out in duplicate, and the EC₅₀ value was calculated using a 4-parameter logistic curve model.
# [5] = molecular target: T1, CEACAM5 (R&D Systems, 4128-CM-050); assay: ELISA on immobilised CEACAM5, 4-parameter fit, duplicate (Example 3-2)
# Experimental: as §1, §2
# [6] = design: species or system mice (BALB/c nu/nu); conditions: mouse, in vivo
# Experimental: (§3) A Gd-labeled conjugate of the conjugate containing a peptide linker produced in one of the above Examples was administered from the tail vein of tumor-bearing mice so that the protein mass was 0.02 mg (100 μL) per animal. As the tumor-bearing mice used in the present Example, mice (BALB/c nu/nu) that were in a tumor-bearing state brought about by transplanting human colorectal cancer cell line LS174T cells (ATCC(registered trademark); CL-188) at 2.0 to 5.0×10^6 cells/mouse subcutaneously on the back before administration of the sample were used. 24 hours after administration of the sample, the mice were sacrificed, the kidneys and the tumor were removed, and the amounts of Gd in the kidneys and in the tumor were measured using ICP-MS. The present test was carried out in 3 cases in each group, and the mean value of the 3 cases was calculated. The amount of Gd contained per kidney after administration was shown as a percentage of the amount of Gd administered (% of dose/tissue), and the amount of Gd contained per g of tumor tissue was shown as a percentage of the total amount of Gd administered (% of dose/g).
# [7] = Kidney accumulation evaluation test of Gd-labeled conjugates, normal mice (Example 4-1)
# Experimental: A Gd-labeled conjugate of the conjugate containing a peptide linker produced in one of the above Examples was administered from the tail vein of mice (BALB/c or BALB/c nu/nu) so that the protein mass was 0.02 mg (100 μL) per animal. After about 24 hours, the mice were sacrificed and the kidneys were removed, and the amount of Gd in the kidneys was measured using ICP-MS. The present test was carried out in 3 cases in each group, the mean value of the 3 cases was calculated, and the amount of Gd contained per kidney after administration was shown as a percentage (% of dose/tissue) of the total amount of Gd administered.
# Based on the percentage of the control conjugate (% of dose/tissue), the proportion of decrease in the amount of Gd contained in the kidneys of each of the conjugates having a peptide linker was determined and shown in Table 28.
# [8] = tested on: human colorectal cancer cell line LS174T cells; assay: Amount of tumor accumulation of Gd-labeled conjugates, LS174T tumor-bearing mice (Example 4-4); conditions: Gd per g of tumor tissue, 24 hours, mean of 3 cases
# Experimental: as §3
# [9] = molecular target: human cancer-specific MUC1 peptide (PTL 1) (human); assay: ELISA on immobilised human cancer-specific MUC1 peptide, 4-parameter fit; one of 3 runs (Example 6-1)
# [10] = molecular target: human cancer-specific MUC1 peptide (PTL 1) (human); assay: ELISA on immobilised human cancer-specific MUC1 peptide, 4-parameter fit; one of 3 runs (Example 6-2)
molecule,measurement,setting,value
[^111In]DOTA-Rituxan Fab: conjugate of [^111In]DOTA-Rituxan Fab (NPL 11),accumulation in the kidneys,[1],highly accumulated in the kidneys
CEA-Scan: mouse monoclonal antibody NP-4 Fab′ labeled with ^99mTc; FDA-approved diagnostic drug for colorectal cancer,uptake into lesion sites,[2],does not exceed the uptake into the normal liver
"anti-human CEACAM5 antibody Fab fragment PB009-01 (Fab, V domains shown, Humanized from mouse T84.66; also called Fab^2; Fab^2 fragment having no labeling portion) VH: EVQLVESGGGLVQPGGSLRLSCAASGFNIRDTYMHWVRQAPGKGLEWVARIDPANGNSRYVPKFQGRFTISADTSRNTAYLQMNSLRAEDTAVYYCAPFGYYVSDYAMAYWGQGTLVTVSS VL: DIQLTQSPSSLSASVGDRVTITCRAGESVDIFGVGFLHWYQQKPGKAPKLLIYRASNLESGIPSRFSGSGSRTDFTLTISSLQPEDFATYYCQQTNEDPYTFGQGTKVEIKR",EC50,[3],0.2 nM
same,EC50,[4],0.14 nM and 0.21 nM
"[Gd/DOTA-NH-CH2-(1,4-Ph)-NH-C(═O)-Met-Ile-NH-(CH2)2-(A-4 and/or A-5)]p-Fab^2 (Fab, V domains shown, labeling may sit on this chain; sites not stated; labeling portion (MW 1092) on amino groups of the Fab, sites and chain not stated; 1-4 per Fab by MS, also called Ex-No 66; Conjugate No. 66) VH: EVQLVESGGGLVQPGGSLRLSCAASGFNIRDTYMHWVRQAPGKGLEWVARIDPANGNSRYVPKFQGRFTISADTSRNTAYLQMNSLRAEDTAVYYCAPFGYYVSDYAMAYWGQGTLVTVSS VL: DIQLTQSPSSLSASVGDRVTITCRAGESVDIFGVGFLHWYQQKPGKAPKLLIYRASNLESGIPSRFSGSGSRTDFTLTISSLQPEDFATYYCQQTNEDPYTFGQGTKVEIKR",EC50,[5],0.16 nM
"[Gd/DOTA-NH-CH2-(1,4-Ph)-NH-C(═O)-Met-Ile-NH-(CH2)2-(A-3)]p-Fab^2 (Fab, V domains shown, labeling may sit on this chain; sites not stated; labeling portion (MW 1187) on amino groups of the Fab, sites and chain not stated; 1-3 per Fab by MS, also called Ex-No 68; Conjugate No. 68) VH: EVQLVESGGGLVQPGGSLRLSCAASGFNIRDTYMHWVRQAPGKGLEWVARIDPANGNSRYVPKFQGRFTISADTSRNTAYLQMNSLRAEDTAVYYCAPFGYYVSDYAMAYWGQGTLVTVSS VL: DIQLTQSPSSLSASVGDRVTITCRAGESVDIFGVGFLHWYQQKPGKAPKLLIYRASNLESGIPSRFSGSGSRTDFTLTISSLQPEDFATYYCQQTNEDPYTFGQGTKVEIKR",EC50,[5],0.31 nM
"[Gd/DOTA-[2,5-(1,2,3,4-tetrahydroisoquinoline)]-C(═O)-Met-Gly-Lys*-Z2(#N)]p-Fab^2 (conjugate) heavy: EVQLVESGGGLVQPGGSLRLSCAASGFNIRDTYMHWVRQAPGKGLEWVARIDPANGNSRYVPKFQGRFTISADTSRNTAYLQMNSLRAEDTAVYYCAPFGYYVSDYAMAYWGQGTLVTVSSASTKGPSVFPLAPSSKSTSGGTAALGCLVKDYFPEPVTVSWNSGALTSGVHTFPAVLQSSGLYSLSSVVTVPSSSLGTQTYICNVNHKPSNTKVDKKVEPKSCD light: DIQLTQSPSSLSASVGDRVTITCRAGESVDIFGVGFLHWYQQKPGKAPKLLIYRASNLESGIPSRFSGSGSRTDFTLTISSLQPEDFATYYCQQTNEDPYTFGQGTKVEIKRTVAAPSVFIFPPSDEQLKSGTASVVCLLNNFYPREAKVQWKVDNALQSGNSQESVTEQDSKDSTYSLSSTLTLSKADYEKHKVYACEVTHQGLSSPVTKSFNRGEC",Renal residual amount (tumor-bearing mice) % of dose/tissue,[6],7.30 % of dose/tissue
same,Renal residual amount (tumor-bearing mice) Proportion of decrease,[6],71.74%
same,Proportion of decrease (amount of Gd contained in the kidneys),"[7]; based on control conjugate Ex-No. 47, about 24 hours",82.9%
same,% of dose/tissue (amount of Gd contained per kidney),"[7]; tail vein, 0.02 mg protein per animal, about 24 hours, ICP-MS, mean of 3 cases",5.3 % of dose/tissue
same,Amount of tumor accumulation (tumor-bearing mice),[8],4.53 % dose/g
"anti-human MUC1 antibody Fab fragment P10-2 (Fab, V domains shown, glutamine of amino acid 1 modified to pyroglutamic acid (as Fab^5 is defined in paragraph 370)) VH: QVQLVQSGAEVKKPGASVKVSCKASGYTFTNYGLSWVRQAPGQGLEWMGENHPGSGIIYHNEKFRGRVTLTADRSTSTAYMELSSLRSEDTAVYYCARSSGTRGFDYWGQGTLVTVSS VL: DVVMTQTPLSLSVTPGQPASISCRSSQSIVHSNGNTYLEWYLQKPGQSPQLLIYRVSNRFSGVPDRFSGSGSGTDFTLKISRVEAEDVGVYYCFQGSHGPWTFGQGTKLEIKR",EC50,[9],0.06 nM and 0.14 nM
same,EC50,[10],0.06 nM and 0.14 nM
